We go through 5 molecules from patent publication US20240197897A1, “HETEROTANDEM BICYCLIC PEPTIDE COMPLEXES” (Bicycle Tx Limited, priority 2021, published 2024).

One series has as its system NK cells. In words: Degranulation assay (CD107a surface expression on NK cells co-cultured with A549). The series is classed as cell-based, human. As to conditions: for upregulation of CD107a on NK cell surface: NK cells with A549 cells, post-treatment, FIG. 1. The protocol: Tumor cells can be recognized and killed by CD8+T-cytotoxic and NK cells through the immune secretion of lytic granules that kill target cells. This process involves the fusion of the granule membrane with the cytoplasmic membrane of the immune effector cell, resulting in surface exposure of CD107a (LAMP1). Membrane expression of CD107a constitutes a marker of immune cell activation and cytotoxic degranulation. EphA2/NKp46 or EphA2/CD16a heterotandem bicyclic peptide complexes were evaluated for activation of NK cells using a degranulation assay.
On the day of the experiment, medium was prepared by supplementing RPMI-1640 (Gibco™ 11875-093; with L-glutamine) with 10% heat-inactivated fetal bovine serum (FBS; Corning® 35-011-CV), 10 mM HEPES (Gibco™ 15-630-080), and 1% Penicillin Streptomycin (Corning™ 30-002-CI), herein referred to as working medium. Previously isolated human peripheral blood mononuclear cells (PBMCs), from whole blood, were quick thawed in a water bath and washed once at 500 rpm for 5 minutes in 10 mL of prewarmed working medium. PBMC pellet was then resuspended to concentration of 5×10^6 cells/mL in working medium and rested overnight (12-18 hours) horizontally in a tissue-culture coated flask (T-183; CELLTREAT Scientific 229351). Moreover, Ephrin type-A receptor (EphA2) expressing human lung carcinoma cell line A549 (ATCCR CCL-185; cells were grown and maintained according to manufacturer's recommendation) were detached from the culture vessel using Trypsin/EDTA and washed once at 500 rpm for 5 minutes in 15 mL of prewarmed working medium. Cell pellet was then resuspended in working medium at a concentration of 1×10^5 cells/mL. Subsequently, 100 μL of cell suspension was plated in a flat-bottom tissue-culture coated 96-well plate (Greiner CellStar® 655180) and rested overnight (12-18 hours).
Post-overnight incubation, PBMCs were removed from the flask and washed once at 500 rpm for 5 minutes in 10 mL of prewarmed working medium. […]

Series [1] in a line: NK cytotoxicity assay (NK:HT1080-luc co-culture, luciferase readout). It is filed as cell-based, human. As to conditions: NK:HT1080-luc co-culture, 24 hours, four-parameter logistic regression; FIGS. 2-4, 6-8, 10; read-out: EC50 NK cytotoxicity (tumor cell killing). The protocol: (§1) Heterotandem bicyclic peptide complexes were evaluated for NK functional readouts (cytotoxicity and cytokine secretion) in NK-tumor cell line co-cultures.
(§2) NK cells were isolated using a negative isolation kit (STEMCELL™ Technologies 17955) from the total PBMC population purified from whole blood. NK cell pellet was then resuspended in DMEM medium (Corning™ 10-013-CV) with 10% heat-inactivated fetal bovine serum (FBS; Corning® 35-011-CV), 10 mM HEPES (Gibco™ 15-630-080), and 1% Penicillin Streptomycin (Corning™ 30-002-CI), and 50 IU/mL human IL-2 (Miltenyi Biotec® 130-097-748), at a concentration of 4×10^5 cells/mL. For the NK cell cytotoxicity assays, 50 μL (2×10^4) of cell suspension was plated in the 96-well plate (Grenier® Bio One™ 655090) containing 50 μl (4×10^3) HT1080-luc cells (ATCC® CCL-121-luc2) in DMEM (Gibco™ 11875-093; with L-glutamine) with 10% heat-inactivated fetal bovine serum (FBS; Corning® 35-011-CV), 10 mM HEPES (Gibco™ 15-630-080), and 1% Penicillin Streptomycin (Corning™ 30-002-CI). […] The plates were then incubated for 24 hours at 37° C., 5% CO2. Post-incubation, plates was centrifuged at 250×g for 5 minutes and 100 μl supernatant discarded. Samples were then incubated 10 minutes with 50 μl Bright-Glo™ Luciferase Assay system (Promega™ E2620). Luminescence upon excitation at 570 nm was read using a CLARIOstar® plate-reader with MARS Data Analysis Software™. Data was fit to a four-parameter non-linear regression in GraphPad Prism™ 8.0.2 to generate an EC50 value.

The next series relates to HT1080-luc cells. The series is described as above. The series is classed as cell-based, human. To be noted: in comparison to NK:HT1080-luc co-culture without heterotandem complex (NK-TICA). The protocol:
as §1, §2

The target of the next series is NKp46 (human) (UniProt O76036). Description: cell-based or functional assay.
Sequence of NKp46 (human) (O76036 22-304): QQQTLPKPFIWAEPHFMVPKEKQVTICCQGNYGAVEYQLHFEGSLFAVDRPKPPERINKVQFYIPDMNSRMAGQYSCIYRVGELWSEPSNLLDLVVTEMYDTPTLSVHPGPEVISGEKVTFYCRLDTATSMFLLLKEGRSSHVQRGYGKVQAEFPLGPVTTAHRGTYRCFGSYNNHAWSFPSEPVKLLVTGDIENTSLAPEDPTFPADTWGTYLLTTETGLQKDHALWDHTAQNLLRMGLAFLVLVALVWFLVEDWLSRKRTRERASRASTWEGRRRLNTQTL
Series [2] has as its target FcγRIIIA (also known as CD16a) (human) (UniProt P08637). In words: cell-based or functional assay.
The target in series [3] is EPH receptor A2 (ephrin type-A receptor 2) (human) (UniProt P29317). Description: cell-based or functional assay.
Sequence of EPH receptor A2 (ephrin type-A receptor 2) (human) (P29317 24-976): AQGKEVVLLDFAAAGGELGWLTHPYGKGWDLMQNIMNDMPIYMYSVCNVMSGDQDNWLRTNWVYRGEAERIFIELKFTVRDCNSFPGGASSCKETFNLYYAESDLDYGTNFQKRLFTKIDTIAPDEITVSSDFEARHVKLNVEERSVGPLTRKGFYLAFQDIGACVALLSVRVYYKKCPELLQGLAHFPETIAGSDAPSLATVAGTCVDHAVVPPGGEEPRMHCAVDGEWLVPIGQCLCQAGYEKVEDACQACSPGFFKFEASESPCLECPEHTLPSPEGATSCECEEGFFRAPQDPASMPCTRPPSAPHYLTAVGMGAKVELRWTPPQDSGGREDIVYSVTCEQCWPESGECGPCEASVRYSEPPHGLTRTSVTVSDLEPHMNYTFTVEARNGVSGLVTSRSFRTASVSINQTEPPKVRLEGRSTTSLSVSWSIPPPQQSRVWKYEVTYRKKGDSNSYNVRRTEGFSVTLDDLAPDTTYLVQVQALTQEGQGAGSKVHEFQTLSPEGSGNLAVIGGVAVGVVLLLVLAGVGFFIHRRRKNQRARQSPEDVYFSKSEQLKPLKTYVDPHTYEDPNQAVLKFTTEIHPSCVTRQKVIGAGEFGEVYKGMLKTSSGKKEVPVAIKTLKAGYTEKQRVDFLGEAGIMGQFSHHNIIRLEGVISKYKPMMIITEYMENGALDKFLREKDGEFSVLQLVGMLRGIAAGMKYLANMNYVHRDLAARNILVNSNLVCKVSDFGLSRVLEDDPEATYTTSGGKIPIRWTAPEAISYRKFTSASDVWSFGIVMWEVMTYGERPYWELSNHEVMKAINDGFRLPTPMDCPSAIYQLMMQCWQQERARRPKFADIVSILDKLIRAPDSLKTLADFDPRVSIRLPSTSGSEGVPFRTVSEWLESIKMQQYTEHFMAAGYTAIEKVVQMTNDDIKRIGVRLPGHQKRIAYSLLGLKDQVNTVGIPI

Starred links: 1 amine or outer side, 2 acyl side, 3 side chain; linkers in the order of their positions; H or OH if unused. Positions of bridges follow the written chain, without caps; N, C: chain ends. Non-standard residues stand in square brackets, D forms with d. Chains are numbered I, II in the order given. No end group written: not given here. *: point of attachment. TBMT = 2,4,6-tris(bromomethyl)-s-triazine, molecular scaffold, C(c1nc(C[*:2])nc(C[*:3])n1)[*:1]; TATA = O=C(CC[*:1])N1CN(C(=O)CC[*:2])CN(C(=O)CC[*:3])C1; Hyp = O=C(O)[C@@H]1C[C@@H](O)CN1; hArg = N=C(N)NCCCC[C@H](N)C(=O)O; Cba = N[C@@H](CC1CCC1)C(=O)O; Pent4ynoyl = C#CCCC(=O)*

Sequence of FcγRIIIA (also known as CD16a) (human) (P08637 17-254): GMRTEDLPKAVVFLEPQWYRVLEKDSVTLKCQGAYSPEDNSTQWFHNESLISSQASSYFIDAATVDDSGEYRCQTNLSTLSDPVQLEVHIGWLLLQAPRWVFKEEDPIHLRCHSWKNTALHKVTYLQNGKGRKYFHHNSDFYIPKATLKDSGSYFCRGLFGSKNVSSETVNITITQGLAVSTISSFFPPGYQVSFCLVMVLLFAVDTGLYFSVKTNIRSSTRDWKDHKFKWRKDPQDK

As usually defined, the EC50 is the concentration giving half of the maximal effect. On to “BCY15911: EphA2 specific peptide BCY9594 linked to two CD16a specific peptides (BCY13886) via N-(acid-PEG3)-N-bis(PEG3-azide) linker (peptide 1 A[hArg]DC[Hyp]LVNPLCLHP[dD]W[hArg]C; peptide 2 ACVGLEELGPCSDLCAK(Pent4ynoyl); linker I:4-I:11-I:18 via TATA; linker II:2-II:11-II:15 via TBMT; also: chain 1 N-terminus and chain 2 K(PYA) joined through N-(acid-PEG3)-N-bis(PEG3-azide) linker, two copies of chain 2)”, for which the “upregulation of CD107a on NK cell surface” value with NK cells is “dose-dependent upregulation of CD107a”. For the same molecule, the 50% effective concentration (EC50) in the series with NK cells (NK cells with EphA2 expressing A549 cells, 4 hours, flow cytometry, read-out: EC50 Degranulation Geometric Mean CD107a) turned out to be 99.8 nM.

As for `CC(C)C[C@@H]1NC(=O)[C@H](Cc2ccc(O)cc2)NC(=O)[C@H](CC(=O)O)NC(=O)[C@@H]2CCCN2C(=O)[C@H](CC(C)C)NC(=O)[C@H](Cc2ccc(O)cc2)NC(=O)[C@@H](NC(=O)[C@H](C)N)CSCCC(=O)N2CN3CN(C2)C(=O)CCSC[C@@H](C(=O)N[C@@H](C)C(=O)N[C@H](CCCCNC(=O)CCc2cn(CCOCCOCCOCCN(CCOCCOCCOCCC(=O)N[C@@H](C)C(=O)N[C@@H](CCCCNC(=N)N)C(=O)N[C@@H](CC(=O)O)C(=O)N[C@H]4CSCCC(=O)N5CN6CN(C5)C(=O)CCSC[C@H](NC(=O)[C@H](CC(C)C)NC(=O)[C@@H]5CCCN5C(=O)[C@H](CC(N)=O)NC(=O)[C@H](C(C)C)NC(=O)[C@H](CC(C)C)NC(=O)[C@@H]5C[C@@H](O)CN5C4=O)C(=O)N[C@@H](CC(C)C)C(=O)N[C@@H](Cc4c[nH]cn4)C(=O)N4CCC[C@H]4C(=O)N[C@H](CC(=O)O)C(=O)N[C@@H](Cc4c[nH]c5ccccc45)C(=O)N[C@@H](CCCCNC(=N)N)C(=O)N[C@H](C(N)=O)CSCCC6=O)CCOCCOCCOCCn4cc(CCC(=O)NCCCC[C@@H](NC(=O)[C@H](C)NC(=O)[C@@H]5CSCCC(=O)N6CN7CN(C6)C(=O)CCSC[C@H](NC(=O)[C@H](CC(C)C)NC(=O)[C@H](Cc6ccc(O)cc6)NC(=O)[C@H](CC(=O)O)NC(=O)[C@@H]6CCCN6C(=O)[C@H](CC(C)C)NC(=O)[C@H](Cc6ccc(O)cc6)NC(=O)[C@@H](NC(=O)[C@H](C)N)CSCCC7=O)C(=O)NCC(=O)N[C@@H](CC(=O)O)C(=O)N[C@@H](CCC(=O)O)C(=O)N[C@@H](Cc6ccc(O)cc6)C(=O)N5)C(N)=O)nn4)nn2)C(N)=O)NC(=O)[C@H](Cc2ccc(O)cc2)NC(=O)[C@H](CCC(=O)O)NC(=O)[C@H](CC(=O)O)NC(=O)CNC(=O)[C@H](CSCCC3=O)NC1=O` [BCY15664], in series [1], the EC50 came out at 0.021 nM. In the series with HT1080-luc cells, the “effect on tumor cell killing by NK cells, in words” value is “dose-dependent NK cell response to kill”. In addition, in the series with NK cells, the “upregulation of CD107a on NK cell surface” value was “dose-dependent upregulation of CD107a”.

B1: heterotandem bicyclic peptide complex BCY20793 (peptide)
peptide 1: A[hArg]DC[Hyp]LVNPLCLHP[dD]W[hArg]C
peptide 2: Ac-CY[Cba]PDYLC[dA]DEYCK(Pent4ynoyl)
peptide 3: ACRWHFSEPCGAWCAK(Pent4ynoyl)
modifications: linker I:4-I:11-I:18, II:1-II:8-II:13 via TATA; linker III:2-III:10-III:14 via TBMT; also: three peptides joined on N-(PEG3-acid)-N-(PEG3-azide)-N-(PEG3-NH-AcAz) linker (triazole to PYA of chains 2 and 3)
On to B1, for which the EC50, NK cytotoxicity assay (HT1080-luc luminescence) (with NKp46 (human); in series [2]) was 0.0065 nM each time.

B2: heterotandem bicyclic peptide complex BCY15911 (peptide)
peptide 1: A[hArg]DC[Hyp]LVNPLCLHP[dD]W[hArg]C
peptide 2: ACVGLEELGPCSDLCAK(Pent4ynoyl)
modifications: linker I:4-I:11-I:18 via TATA; linker II:2-II:11-II:15 via TBMT; also: EphA2:CD16a 1:2, two copies of chain 2 on the linker, X5, X17: HyP or HArg, linker at chain B 17 to a chain's N-terminus via N-(acid-PEG3)-N-bis(PEG3-azide) linker
As to B2, the EC50 Degranulation Geometric Mean CD107a in series [3] and in series [2] was 99.8 nM throughout.

B3: heterotandem bicyclic peptide complex BCY15923 (peptide)
peptide 1: A[hArg]DC[Hyp]LVNPLCLHP[dD]W[hArg]C
peptide 2: ACDLTTHNCQWGICAK(Pent4ynoyl)
modifications: linker I:4-I:11-I:18, II:2-II:9-II:14 via TATA; also: EphA2:NKp46 1:2, two copies of chain 2 on the linker, X5, X17: HyP or HArg, linker at chain B 16 to a chain's N-terminus via N-(acid-PEG3)-N-bis(PEG3-azide) linker
In the case of B3, the EC50, NK cytotoxicity assay (HT1080-luc luminescence) (in series [3]; with NKp46 (human)) was 0.044 nM throughout.
